Patent US20080160018A1 (PDL BIOPHARMA, published 2008)

B1: chimeric mik-β1 antibody (antibody, V domains shown)
VH: QVQLKQSGPGLVQPSQSLSITCTVSGFSVTSYGVHWIRQSPGKGLEWLGVIWSGGSTDYNAAFISRLTISKDNSKSQVFFKVNSLQPADTAIYYCARAGDYNYDGFAYWGQGTLVTVSA
VL: QIVLTQSPAIMSASPGEKVTMTCSGSSSVSFMYWYQQRPGSSPRLLIYDTSNLASGVPVRFSGSGSGTSYSLTISRMEAEDAATYYCQQWSTYPLTFGAGTKLELK
B2: humanized mik-β1 antibody (antibody, V domains shown)
VH: EVQLLESGGGLVQPGGSLRLSCAASGFTVTSYGVHWVRQAPGKGLEWVGVIWSGGSTDYNAAFISRFTISRDNSKNTLYLQMNSLQAEDTAIYYCARAGDYNYDGFAYWGQGTLVTVSS
VL: DIQMTQSPSSLSASVGDRVTITCSGSSSVSFMYWYQQKPGKAPKLLIYDTSNLASGVPSRFSGSGSGTDYTFTISSLQPEDIATYYCQQWSTYPLTFGQGTKVEVK

How the values were obtained:
[1] = molecular target: T1, p75 chain of the human IL-2 receptor on YTJB cells (human, UniProt P14784 27-551); assay: flow cytometry on YTJB cells
T1 construct: whole, on cells; also called p75 protein; p75 antigen
T1 sequence (looked up): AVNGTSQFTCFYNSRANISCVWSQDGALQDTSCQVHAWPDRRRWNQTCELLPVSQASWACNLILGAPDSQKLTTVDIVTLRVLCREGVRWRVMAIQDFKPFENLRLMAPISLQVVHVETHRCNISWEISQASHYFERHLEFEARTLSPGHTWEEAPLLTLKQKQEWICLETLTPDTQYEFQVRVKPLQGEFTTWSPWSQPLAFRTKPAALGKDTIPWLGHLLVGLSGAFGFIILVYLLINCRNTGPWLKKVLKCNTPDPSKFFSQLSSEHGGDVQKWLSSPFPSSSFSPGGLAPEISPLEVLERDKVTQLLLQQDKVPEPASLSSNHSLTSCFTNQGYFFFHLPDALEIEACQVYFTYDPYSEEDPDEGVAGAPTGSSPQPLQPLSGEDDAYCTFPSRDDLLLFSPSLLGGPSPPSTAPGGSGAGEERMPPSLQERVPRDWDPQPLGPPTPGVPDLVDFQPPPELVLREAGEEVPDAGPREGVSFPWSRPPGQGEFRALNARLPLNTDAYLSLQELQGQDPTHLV
Procedure: Cells were suspended in FACS buffer (PBS+2% BSA+0.1% azide) at approximately 5×10⁶/ml. 100 ul of cell suspension was transferred to a polystyrene tube and incubated with 100 ng of purified antibody on ice for 30 min. The cells were washed with FACS buffer and incubated with goat anti-human Ig antibody on ice for another 30 min. Then the cells were washed and incubated with FITC labeled rabbit anti-goat Ig antibody for 30 min. The cells were washed again and finally resuspended in PBS+1% paraformaldehyde. Cells were analyzed on a FACSmate (Becton Dickinson).

[2] = molecular target: T1, p75 chain of the human IL-2 receptor on …; assay: competition with radio-iodinated mouse mik-β1 on YTJB cells, Berzofsky calculation
Procedure: After incubation for 2 hr at 0° C. the cells were washed twice with binding buffer without mouse Ig and collected by centrifugation. The radioactivity bound to cells was measured and expressed as the ratio of bound/free cpm.

Row | Binder | binding result [1] | fold difference of binding affinity against the mouse mik-β1 antibody [2] [fold]
1 | B1 | binds | –
2 | B2 | – | ≤ 2
